In publication PMC3511536, “The Interleukin 3 Gene (IL3) Contributes to Human Brain Volume Variation by Regulating Proliferation and Survival of Neural Progenitors”:
Changes are numbered by the printed parent chain.

Target: SP1 (Homo sapiens, UniProt P08047 1-785)
Experiment: EMSA; 10 mM Tris-HCl pH 7.5, 1 mM MgCl2, 0.5 mM EDTA, 0.5 mM DTT, 50 mM NaCl, 50 ug/ml poly(dI-dC), 4% glycerol, 35 fmol probe, 20 min, room temperature; 6% native PAGE
Settings: protein: recombinant; label: 3' biotin; blunt

SP1, sequence (P08047 whole entry): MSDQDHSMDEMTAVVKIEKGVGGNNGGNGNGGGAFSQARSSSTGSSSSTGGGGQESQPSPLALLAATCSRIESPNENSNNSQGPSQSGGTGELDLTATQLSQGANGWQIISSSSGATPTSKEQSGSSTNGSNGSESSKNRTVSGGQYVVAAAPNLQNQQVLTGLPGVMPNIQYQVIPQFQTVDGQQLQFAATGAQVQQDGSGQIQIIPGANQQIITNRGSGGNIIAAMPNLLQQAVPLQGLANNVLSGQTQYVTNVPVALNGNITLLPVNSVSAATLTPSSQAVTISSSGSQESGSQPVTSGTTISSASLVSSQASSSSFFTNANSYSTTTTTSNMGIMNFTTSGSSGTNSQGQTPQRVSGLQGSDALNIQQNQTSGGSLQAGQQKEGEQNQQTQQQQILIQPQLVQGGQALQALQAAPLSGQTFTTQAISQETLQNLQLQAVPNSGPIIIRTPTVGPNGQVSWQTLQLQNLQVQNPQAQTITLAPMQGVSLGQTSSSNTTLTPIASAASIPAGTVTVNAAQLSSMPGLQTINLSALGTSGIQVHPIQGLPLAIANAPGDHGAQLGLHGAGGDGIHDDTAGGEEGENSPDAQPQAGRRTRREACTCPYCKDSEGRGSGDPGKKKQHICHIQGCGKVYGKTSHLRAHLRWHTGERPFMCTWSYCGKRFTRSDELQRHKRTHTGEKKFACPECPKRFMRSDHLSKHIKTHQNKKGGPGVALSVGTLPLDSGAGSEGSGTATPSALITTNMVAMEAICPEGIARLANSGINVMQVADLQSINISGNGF

B1: IL3 promoter rs31480 T-allele (dsDNA)
DNA 1: TGCACATATAAGGCGGGAGGTTGTTGCCAACGCTTCAGAGC
DNA 2: GCTCTGAAGCGTTGGCAACAACCTCCCGCCTTATATGTGCA
Does B1 bind?
Result: binds

B2: IL3 promoter rs31480 C-allele (dsDNA)
DNA 1: B1 DNA 1 with T21C
DNA 2: B1 DNA 2 with A21G
Does B2 bind?
Result: no binding
